Measurements as given in patent US20050221395A1, “Methods and products based on oligomerization of stress proteins” (priority 2002, published 2005).
“And” between values parts separate entries of the source, which are not always exact repeats. Equal values may be shown once.

Experiments:
[1] = ATPase activity, luciferin-luciferase luminescence assay (geldanamycin inhibitable); assay type: biochemical; conditions: for ATPase activity of SEC fractions (rate of ATP hydrolysis per mg protein): SEC fractions of human tumor derived gp96-peptide complex (FIG. 6); for ATPase: gp96 loaded with AH1 19mer peptide
Protocol: Finally, ATPase activity of each fraction was determined based on the loss of ATP using a luciferin-luciferase luminescence assay. Values are reported as the rate of ATP hydrolysis per mg protein. […] The ATPase activity was in the dimer containing fractions with minimal activity in the high molecular weight aggregate and monomer fractions.
ATPase activity was measured as the loss of ATP following 4 hr. of incubation at 37° C. using a luciferin-luciferase luminescence assay. Values are reported as the rate of ATP hydrolysis per mg protein and represent only the activity that is geldanamycin inhibitable to ensure specificity for the hsp90 family of heat shock proteins.
The assay is performed as follows. Gp96 samples (2 μL, 500 μg/mL in PBS) were mixed with 2 μL of a solution comprising a 10 fold molar excess ATP in PBS containing 12.5 mM MgCl2, and either 20% (v/v) DMSO or DMSO containing […] geldanamycin. This mixture was incubated at 37° C. for 4 hr. Samples were then diluted to 100 μL with PBS and the ATP contained in 50 μL of each sample was quantified using the ROCHE CLSII bioluminescence ATP assay kit. Bioluminescence was measured using a Molecular Devices Lmax luminometer. The difference in ATP concentration between uninhibited and Geldanamycin-inhibited measurements reflects the amount of ATP hydrolysis specific to gp96. Rates were calculated from this differential and expressed as nmoles of ATP hydrolyzed per mg protein per hr.

[2] = test system: AH1 peptide-specific CTLs co-cultured with RAW264.7 cells; experiment: hybrid antigen re-presentation assay (IFN-γ by ELISA); assay type: cell-based, mouse; conditions: for IFN-γ response (T-cell stimulation): 10 μg/mL or diluted with unloaded gp96 at 1:3, 1:10 or 1:30, APCs and CTLs (FIG. 7); for ability to stimulate T-cells: heated at 60° C. for 10 min
Protocol: For this purpose, a hybrid antigen re-presentation bioassay system was developed in which the mouse antigen, AH1 peptide, for which a mouse CD8 T-cell line is available, was exchanged in vitro onto human tumor derived hsp. The gp96-peptide complex was then tested for its ability to facilitate antigen re-presentation and antigen-specific T-cell stimulation.
The antigen presenting cell line, RAW264.7 (ATCC #TIB-71), is an Abelson murine leukemia virus transformed macrophage cell line, which originated from the BALB/c strain (H-2^d). The CTL line specific for the murine CT26 tumor derived AH1 epitope was obtained from P. Srivastava (U. of Conn. Medical Center). They were re-stimulated on a weekly basis with the AH1 peptide plus irradiated BALB/c splenocytes. The 9 amino acid AH1 peptide epitope ([…]) and the 19mer peptide ([…]) which contained this epitope were obtained from Sigma Genosys 1442 lake Front Circle, The Woodlands, Tex. 77380-3600.
AH1 19mer peptide was added to purified gp96 preparations at a ratio of 50:1 peptide to protein and the mixture incubated at 37° C. for 30 mm. Unbound peptide was removed by 4 cycles of spin dialysis with 10 volumes of PBS using 30K MWCO Centricon spin filter units (Millipore). Total protein was determined by the Bradford assay.
The in vitro antigen re-presentation assay has been described. Briefly, 10^4 AH1 peptide-specific CTLs (day 8 post stimulation) were co-cultured with 10^4 RAW264.7 cells in 96-well flat bottom plates. In vitro loaded gp96 samples at 10 μg/mL were analyzed neat or diluted with unloaded gp96 at the indicated amounts in order to maintain constant protein concentration. Protein samples and controls were added to the wells and incubated at 37° C. for 18 hr. Following centrifugation, the supernatants were harvested for analysis of IFN-γ levels by ELISA (R&D Systems). Reported values represent the average of six replicates. AH1 9mer peptide served as a positive control and unloaded gp96, AH1 19mer peptide and media alone as negative controls. Additional negative controls were provided by applying identical sets of samples to plates that contained either CTLs or APCs only.
The hybrid re-presentation assay measures the ability of human gp96, loaded with AH1 19mer peptide, to deliver antigen to mouse APCs to facilitate re-presentation leading to simulation of antigen specific T-cells. […] The second and third panels are controls for CTLs and APCs alone. Each data set contains media alone, unloaded gp96 and AH1 19mer as negative controls and AH1 9mer peptide, which can exchange directly onto surface MHC I molecules, as the positive control. Gp96/AH1 19mer complex was applied at 10 μg/mL or diluted with unloaded gp96 at 1:3, 1:10 or 1:30.

[3] = % dimer by size exclusion chromatography (SEC); assay type: physicochemical; conditions: for % Dimer: Superose 6 column, gp96 loaded with AH1 19mer peptide; for dimeric form by SEC: mild heat treatment
Protocol: Gp96-peptide complex was isolated from murine CT-26 tumors. Separate aliquots of each preparation were either maintained at 4° C. (untreated) or subjected to mild heat treatment to denature the complex.
HPLC size exclusion chromatography is currently being optimized and has been run under a few different formats. The column was either a TSK 3000SWXL (Toso Haus) or a Superose 6 (Amersham Pharmacia) equilibrated in 10 mM phosphate buffer, pH 7.1, with 300 mM NaCl. All experiments were run at room temperature on a Waters Alliance or HP 1100 HPLC systems at a flow rate of 0.5 mL/min. The following results for human tumor derived gp96 (reported in Table 3, below) were all analyzed on the Superose 6 column. % dimer values represent the area percent of the dimer peak relative to total peak area.

[4] = test system: Tumor specific T-cell; experiment: antigen re-presentation and T-cell activation measured by IFN-γ release; assay type: cell-based, murine
Protocol: Re-presentation of antigenic peptides by hsps is another biological activity of significance. […] Immune response mediated by RAW264.7 APCs and CTLs specific to the peptide of the gp96 complex was measured by IFN-γ levels secreted by the CTLs. IFN-γ is a cytokine that is known in the art to be an indicator of general immune status; it also plays a major role in tumor recognition and rejection. […] A re-presentation assay is described in section 8, by way of example and not limitation.
The same samples were then analyzed for antigen re-presentation and T-cell activation as measured by IFN-γ expression.

[5] = NECA ligand binding
Protocol: Dimer content also correlates with the ability of gp96 to bind NECA. Using the gp96-peptide complex isolated from CT-26 tumors, aliquots of each preparation were also analyzed for NECA ligand binding.

Molecule: Fractions 8-10: SEC fractions of human ovarian tumor derived gp96-peptide complex representing the dimer
- ATPase activity of SEC fractions (rate of ATP hydrolysis per mg protein) [1]: highest

Molecule: fractions 2-5: SEC fractions of human ovarian tumor derived gp96-peptide complex containing mostly higher molecular weight aggregates
- ATPase activity of SEC fractions (rate of ATP hydrolysis per mg protein) [1]: significantly less

Molecule: fractions 11-15: SEC fractions of human ovarian tumor derived gp96-peptide complex: monomeric species, degradation products and lower molecular weight species
- ATPase activity of SEC fractions (rate of ATP hydrolysis per mg protein) [1]: significantly less

Molecule: human endometrial: gp96 purified from human endometrial tumor, loaded in vitro with AH1 19mer peptide (RVTYHSPSYVYHQFERRAK)
- ATPase ([1]; heated at 60° C. for 10 min): 0 nmol/mg/h
- ATPase ([1]; untreated): 8.5 ± 0.3 nmol/mg/h and 9.4 ± 0.5 nmol/mg/h
- IFN-γ response (T-cell stimulation) [2]: dose dependent IFN-γ response
- ability to stimulate T-cells [2]: abolished
- % Dimer ([3]; heated at 60° C. for 10 min): 0%
- % Dimer ([3]; untreated): 86% and 83%

Molecule: human gp96-peptide complex: human gp96-peptide complex used in accelerated stability (mild heat) study
- ATPase activity ([1]; mild heat treatment): abolished
- dimeric form by SEC [3]: converted dimeric protein to high molecular weight aggregates

Molecule: human renal: gp96 purified from human renal cell carcinoma, loaded in vitro with AH1 19mer peptide
- ATPase ([1]; heated at 60° C. for 10 min): 0 nmol/mg/h
- ATPase ([1]; untreated): 10.3 ± 0.1 nmol/mg/h
- IFN-γ response (T-cell stimulation) [2]: specific and dose dependent stimulation of T-cells
- ability to stimulate T-cells [2]: abrogated
- % Dimer ([3]; heated at 60° C. for 10 min): 0%
- % Dimer ([3]; untreated): 84%

Molecule: recombinant gp96: samples of recombinant gp96 incubated at various temperatures for 10 minutes (FIG. 8)
- ATPase activity ([1]; incubated at the indicated temperatures for 10 minutes (FIG. 8)): loss of ATPase activity

Molecule: unloaded gp96: human tumor derived gp96 not loaded with AH1 19mer peptide; negative control and diluent
- IFN-γ response (T-cell stimulation) [2]: no stimulation

B1: gp96-peptide complex isolated from CT-26 tumors: Gp96-peptide complex isolated from murine CT-26 tumors; aliquots kept at 4° C. or heat treated (protein, UniProt P08113 22-802, looked up)
Endoplasmin: DDEVDVDGTVEEDLGKSREGSRTDDEVVQREEEAIQLDGLNASQIRELREKSEKFAFQAEVNRMMKLIINSLYKNKEIFLRELISNASDALDKIRLISLTDENALAGNEELTVKIKCDKEKNLLHVTDTGVGMTREELVKNLGTIAKSGTSEFLNKMTEAQEDGQSTSELIGQFGVGFYSAFLVADKVIVTSKHNNDTQHIWESDSNEFSVIADPRGNTLGRGTTITLVLKEEASDYLELDTIKNLVRKYSQFINFPIYVWSSKTETVEEPLEEDEAAKEEKEESDDEAAVEEEEEEKKPKTKKVEKTVWDWELMNDIKPIWQRPSKEVEEDEYKAFYKSFSKESDDPMAYIHFTAEGEVTFKSILFVPTSAPRGLFDEYGSKKSDYIKLYVRRVFITDDFHDMMPKYLNFVKGVVDSDDLPLNVSRETLQQHKLLKVIRKKLVRKTLDMIKKIADEKYNDTFWKEFGTNIKLGVIEDHSNRTRLAKLLRFQSSHHSTDITSLDQYVERMKEKQDKIYFMAGSSRKEAESSPFVERLLKKGYEVIYLTEPVDEYCIQALPEFDGKRFQNVAKEGVKFDESEKTKESREATEKEFEPLLNWMKDKALKDKIEKAVVSQRLTESPCALVASQYGWSGNMERIMKAQAYQTGKDISTNYYASQKKTFEINPRHPLIRDMLRRIKEDEDDKTVMDLAVVLFETATLRSGYLLPDTKAYGDRIERMLRLSLNIDPEAQVEEEPEEEPEDTSEDAEDSEQDEGEEMDAGTEEEEEETEKESTEKDEL
modifications: CT-26 tumor derived, complexed with peptides
notes: Gp96-peptide complex isolated from murine CT-26 tumors; aliquots kept at 4° C. or heat treated
- Tumor specific T-cell activation (IFN-γ release) ([4]; 49° C. at 15 min): 0 pg/mL
- Tumor specific T-cell activation (IFN-γ release) ([4]; 49° C. at 25 min): 0 pg/mL
- Tumor specific T-cell activation (IFN-γ release) ([4]; 49.5° C. at 30 min): 3150 pg/mL
- Tumor specific T-cell activation (IFN-γ release) ([4]; 60° C. at 60 min): 9350 pg/mL
- Tumor specific T-cell activation (IFN-γ release) ([4]; 60° C. at 120 min): 8100 pg/mL
- % Dimer by SEC ([3]; 4° C. (untreated)): 84.44% and 87% and 75.8%
- % Dimer by SEC ([3]; 49° C. at 15 min): 74%
- % Dimer by SEC ([3]; 49° C. at 25 min): 54%
- % Dimer by SEC ([3]; 49.5° C. at 30 min): 0%
- % Dimer by SEC ([3]; 60° C. at 30 min): 0%
- % Dimer by SEC ([3]; 60° C. at 60 min): 0%
- % Dimer by SEC ([3]; 60° C. at 120 min): 0%
- dimeric form by SEC [3]: rapidly converts to higher molecular weight aggregates
- Specific NECA activity ([5]; 4° C. (untreated)): 1.68 μg NECA bound gp96/μg gp96 and 1.96 μg NECA bound gp96/μg gp96 and 3.27 μg NECA bound gp96/μg gp96
- Specific NECA activity ([5]; 49° C. at 15 min): 1.97 μg NECA bound gp96/μg gp96
- Specific NECA activity ([5]; 49° C. at 25 min): 1.80 μg NECA bound gp96/μg gp96
- Specific NECA activity ([5]; 49.5° C. at 30 min): 0.12 μg NECA bound gp96/μg gp96
- Specific NECA activity ([5]; 60° C. at 30 min): 0.04 μg NECA bound gp96/μg gp96 and 0.07 μg NECA bound gp96/μg gp96
- Specific NECA activity ([5]; 60° C. at 60 min): 0.08 μg NECA bound gp96/μg gp96
- Specific NECA activity ([5]; 60° C. at 120 min): 0.10 μg NECA bound gp96/μg gp96
